The text below walks through data of PMC9458464, “The BAF A12T mutation disrupts lamin A/C interaction, impairing robust repair of nuclear envelope ruptures in Nestor–Guillermo progeria syndrome cells” (Nucleic Acids Research, 2022).

Residue numbers refer to the chain shown, from its start. Names may count otherwise.

The target in data set [1] is T1, BAF A12T (barrier-to-autointegration factor A12T, purified cysteine-free construct) (human, UniProt O75531 1-89, M1G | A12T | C67A | C77A | C80A | C85A).
T1 sequence: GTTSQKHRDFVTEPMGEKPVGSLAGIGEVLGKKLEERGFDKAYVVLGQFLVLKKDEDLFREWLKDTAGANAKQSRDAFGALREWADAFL
The experiment in a line: ITC. (In general: Isothermal titration calorimetry measures the heat released or taken up as one component is titrated into another.)

Data set [2] has as its target T2, BAF WT (barrier-to-autointegration factor, purified cysteine-free construct) (human, UniProt O75531 1-89, M1G | C67A | C77A | C80A | C85A).
T2 sequence: T1 sequence with T12A
Nature of the data set: ITC.

The target of data set [3] is T1, BAF A12T (barrier-to-autointegration …). The experiment in a line: ITC; experiment 1.
In data set [4] the target is T2, BAF WT (barrier-to-autointegration …). The experiment in a line: ITC; experiment 1.
The target in data set [5] is T1, BAF A12T (barrier-to-autointegration …). The experiment in a line: ITC; experiment 2.
Data set [6] concerns the target T2, BAF WT (barrier-to-autointegration …). The experiment in a line: ITC; experiment 2.
The target in data set [7] is T3, lamin A/C Ig-fold domain (aa 411-566) (human, UniProt P02545 411-566).
T3 construct: human lamin A/C fragment from aa 411 to aa 566 (Ig-fold domain); 15N-labelled (grown in M9) for the NMR experiments; also called Igfold domain of lamin A/C; source: E. coli BL21* (DE3), purified (glutathione beads, thrombin cleavage, gel filtration)
T3 sequence (looked up): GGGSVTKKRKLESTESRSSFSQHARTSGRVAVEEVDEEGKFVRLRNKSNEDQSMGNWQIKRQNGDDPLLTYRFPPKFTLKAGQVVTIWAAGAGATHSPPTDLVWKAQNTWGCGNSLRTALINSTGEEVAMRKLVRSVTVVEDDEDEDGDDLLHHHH
The experiment in a line: NMR titration; 2D 1H-15N HSQC of 15N-labelled lamin A/C Ig-fold (80 uM; 160 uM in one sample) with unlabelled BAF at ratios 1:1 and 1:2; 50 mM HEPES pH 7.4, 150 mM NaCl, 293 K; peak intensity ratios I/Io. The following applies: both partners purified.

Data set [8] has as its target T3, lamin A/C Ig-fold domain (aa 411-566). Nature of the data set: ITC; VP-ITC; 100 or 200 uM lamin A/C Ig-fold in the syringe, 20 uM BAF WT or 40 uM BAF A12T in the cell; 50 mM Hepes pH 7.4, 150 mM NaCl, 288 K; stoichiometry set to 0.5 in the fit; each experiment done twice. To be noted: both partners purified.
Data set [9] concerns the molecule itself. The experiment in a line: crystal structure; BAF A12T-lamin A/C Ig-fold complex recovered after ITC (50 mM Hepes pH 7.4, 150 mM NaCl), about 20 mg/ml; sitting drop, 0.1 M bicine pH 9, 3 M ammonium sulfate; 1.6 A.

B1: lamin A/C Ig-fold domain (aa 411-566) (domain or fragment)
chain: T3 sequence (looked up)
As a reminder, the Kd is the constant that tells how readily two partners part at equilibrium. The low end stands for tighter binding, the high end for weaker binding. Take B1: the Kd was found to be 24 µM in [1]; 2.3 µM in [2]; 24 µM in [3]; 2.3 µM in data set [4]; 42 µM in data set [5]; 3.1 µM in data set [6].

B2: BAF WT (barrier-to-autointegration factor, purified cysteine-free construct) (natural protein, human, UniProt O75531 1-89, looked up)
chain: T1 sequence with T12A
notes: human barrier-to-autointegration factor (BAF, 89 amino acids); after tag cleavage the first residue is G instead of M; gene synthesized by Genscript in pETM13; also called BAF WT dimer; not shown: His8, N-terminal, cleaved
Regarding B2, in [7], the “percent of the initial NMR signals of the Ig-fold left at 1:1 ratio” value came out at 27% and the “percent of the initial NMR signals of the Ig-fold left at 1:2 ratio” value came out at 4%. Further, in data set [8], the Kd turned out to be 2.7 ± 1.2 µM.

B3: BAF A12T (barrier-to-autointegration factor A12T, purified cysteine-free construct) (natural protein, human, UniProt O75531 1-89, looked up)
chain: T1 sequence
notes: human barrier-to-autointegration factor (BAF, 89 amino acids); made by mutagenesis of the BAF WT expression vector (all cysteines to alanine, M1G after tag cleavage) with the NGPS mutation A12T; PDB 6GHD holds the parent (BAF WT); PDB 7Z21 holds this mutant; also called BAF A12T dimer; not shown: His8, N-terminal, cleaved
What is called stoichiometry N is the number of molecules, sites or subunits per partner or assembly. Take B3: the “stoichiometry N” value in data set [9] stood at 2. In data set [7], the “decrease of NMR signal intensity of the Ig-fold at 1:1 ratio” value came out at 43% and the “decrease of NMR signal intensity of the Ig-fold at 1:2 ratio” value stood at 66%. The molecule also registered a Kd in [8] of 33 ± 4 µM.
